Assay results taken from the supplement of paper PMC9170038.

Tested on: MS2 coat protein
Assay: apparent KD of MS2 coat protein; designed switch direction (-1 OFF switch, 1 ON switch): -1; higher = weaker reporter binding
In short: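 Designed RNA switches with common flanks were transcribed on Illumina chips by stalled E. coli RNA polymerase and titrated with SNAP-549-labelled MS2 coat protein, from 0.7 or 1.5 nM doubling to 3 µM, in Tris-HCl pH 7.5 buffer with KCl, MgCl2, BSA, DTT, tRNA and Tween-20. Steps lasted 0.8–1.5 h (lowest) to 10–20 min (highest). Titrations ran without input, with 200 uM small-molecule ligand, or with an oligonucleotide input. Normalised cluster fluorescence was curve-fitted, and apparent KD is the per-design median over clusters.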

[1] = Eterna round: R95, input ligand: microRNA oligo, concentration not stated
[2] = input ligand: microRNA oligo, concentration not stated

Row | Sequence | apparent KD of MS2 coat protein [1] | apparent KD of MS2 coat protein (input ligand: FMN 200 uM) | apparent KD of MS2 coat protein (input ligand: none) | apparent KD of MS2 coat protein [2] | apparent KD of MS2 coat protein (Eterna round: R95, input ligand: FMN 200 uM) | apparent KD of MS2 coat protein (Eterna round: R95, input ligand: none)
1 | AUACCACGAGGAUAUCGUCUAUUUCACAUGAGGAUCACCCAUGUUAUCUUUGUUUCGUUUCGAGAAGGCGUGUUUU [JR_E5_Sub077] (puzzle: Exclusion 5) | 30.1 nM | – | – | – | – | –
2 | GCAUCGUAAGGAUAUCAGCCGGUGGUAUACCGAAACAGGGUUGAGAAGGUACAUGAGGAUCACCCAUGUGAUUU [Eternabot (L2) Solution 37] (Eterna round: R97, puzzle: Exclusion 4) | – | 203 nM | 58.6 nM | – | – | –
3 | GGGAGAGAGUGAGGAUAUCAAAGAACAUGAGGAUCACCCAUGUAACCUCAUGUAAGAAGAAGAAGUGAGAAGGCACAGGAGGGU [Default title] (Eterna round: R96, puzzle: Exclusion NG 2) | – | 463 nM | 628 nM | 256 nM | – | –
4 | AAAAAGGGAGGAUAUACAUGAGGAUCACCCAUGUAGCAGACGAAAAAGAGUCUGUAAUGUAGAAGGCCCAAAAA [65%, Moding Exclusion3-cac2, 4] (Eterna round: R96, puzzle: Exclusion 3) | – | 50.9 nM | 17.5 nM | 13.1 nM | – | –
5 | GAAUAGGGAGGAUAUCCAAUAUAUGACAUGAGGAUCACCCAUGUUUCCACUCGUACCUCCGGAGAAGGCCCAUAAG [Ex5 #5] (Eterna round: R97, puzzle: Exclusion 5) | – | 22.4 nM | 30.6 nM | – | – | –
6 | CAGUACUGAGGAUAUACAUGAGGAUCACCCAUGUGUCCCAGCUAGGAAACUAGCAAAAGUAGAAGGCAGUACUG [828 mod 2 m4] (Eterna round: R97, puzzle: Exclusion 3) | – | 622 nM | 28.1 nM | – | – | –
7 | CGUCUGUAAGGAUAUGGUUGCAUCGACAUGAGGAUCACCCAUGUAACGUGGGACUAGUGAUUAGAAGGUACGAACG [EX5 #61] (Eterna round: R97, puzzle: Exclusion 5) | – | 110 nM | 133 nM | – | – | –
8 | UAAUUAGACUCAGGAUAUUCGAAGAGAAGAGAGGAAGAAGGGAGGUGACAUGAGGAUCACCCAUGUAUGUGUUGUGUCCAUGUG [Exclusion NG 1 S1] (Eterna round: R96, puzzle: Exclusion NG 1) | – | 326 nM | 617 nM | 553 nM | – | –
9 | CCUCUACAUGAGGAUCACCCAUGUGAGGAUAUCAGUGCAAAAGGCACGUAAUAAAUCGUGAGAAGGCACAUGGG [EX1 A.15] (Eterna round: R97, puzzle: Exclusion 1) | – | 24 nM | 112 nM | – | – | –
10 | CCGGCUUACUAGGAUAUCAGAGUCGAAAGACUCUGAGAAGGAGUAACAUGAGGAUCACCCAUGUGUCCUACCGG [Mod of Eli 9 - Jieux - Exclusion 6] (Eterna round: R97, puzzle: Exclusion 6) | – | 113 nM | 29.5 nM | – | – | –
11 | GUGUAGUUAGGAUAUGCUGGAAUCUAGCGAAGCUAGGUUCCACAUGAGGAUCACCCAUGUAGAAGGGACUACAC [Dot plot directed A v10] (puzzle: Exclusion 2) | 168 nM | – | – | – | – | –
12 | AAUAACAGAGGAUAUACUAAAAUAUGAAUAAAAUAAAUAAAACAUGAGGAUCACCCAUGUAGAAGGCUGAAUAA [JMF's Not so obvious solution 7] (puzzle: Exclusion 2) | 29.3 nM | – | – | – | 26 nM | 25 nM
13 | CACCGUUAGAGAGGAUAUCGUACAUGAGGAUCACCCAUGUAAUAAAUGAGAAUUUCGGAUGUAUGCGAGAAGGCUCGAAUCGGC [Ostracism 33 - Jieux - Exclusion NG 2] (Eterna round: R96, puzzle: Exclusion NG 2) | – | – | – | 38.6 nM | – | –
14 | AGAGUGCUGCGAGGAUAUACAUGAGGAUCACCCAUGUAUUAGUGUGAGGCUUUGCCUCACACAAUGUAGAAGGCGCAGUACUCA [Mat - Exclusion NG 2 - Mod of JL - D8] (Eterna round: R96, puzzle: Exclusion NG 2) | – | 6.8 nM | 12.4 nM | 11.1 nM | – | –
